Like-named read-outs stand apart in the source and are kept apart here. One block for each binder: values may come before it.
What was measured:
[1] = target: T1, human CD40 on the cell surface (human, UniProt P25942 21-277); assay: cell-based or functional assay
[2] = target: T1, human CD40 on the cell surface; assay: flow cytometry on Raji cells, AF647 anti-human IgG detection
Experimental: Raji cells are of a tumor cell line that overexpresses human CD40. 2E5 Raji cells were inoculated onto a 96-well plate. 100 μL of a test antibody was added, with the highest final concentration of 100 nM. The antibody was 5-fold diluted to 8 concentrations. The plate was incubated at 4° C. for 1 h. […] The plate was incubated at 4° C. for 30 min. The plate was washed once with wash buffer, and fluorescence intensity was measured using a flow cytometer. The binding EC₅₀ values of the anti-CD40 antibodies for CD40 were calculated. The anti-CD40 antagonistic antibody CFZ533 (i.e., iscalimab, Nova) was used as a positive control, and the heavy and light chain variable region sequences were derived from sequence 5 and sequence 2 of U.S. Pat. No. 8,277,810B, respectively.

[3] = target: T1, human CD40 on the cell surface; assay: flow cytometry on Raji cells, Alexa Fluor 488 anti-human IgG (H+L) detection
Experimental: Raji cells were plated at 1.5E5/well, and various concentrations of CD40 antagonistic antibodies were added. The plate was incubated at 4° C. for 1 h. After two washes with FACS buffer (PBS+2% FBS), a secondary antibody (Alexa Flour488 conjugated anti-human IgG (H+L) antibody) was added, and the plate was incubated at 4° C. for 0.5 h.
After two washes with FACS buffer, the fluorescence intensity on the cell surface was measured by flow cytometry (BD FACS Celesta).

[4] = target: T1, human CD40 on the cell surface; assay: cell-based or functional assay; remark: listed apart in the source
[5] = target: T1, human CD40 on the cell surface; assay: cell-based or functional assay; remark: listed apart in the source
[6] = target: T1, human CD40 on the cell surface; assay: cell-based or functional assay; remark: listed apart in the source
[7] = target: T1, human CD40 on the cell surface; assay: cell-based or functional assay; remark: listed apart in the source
[8] = target: T1, human CD40 on the cell surface; assay: cell-based or functional assay; remark: listed apart in the source
[9] = target: T1, human CD40 on the cell surface; assay: cell-based or functional assay; remark: listed apart in the source
[10] = target: T2, his-tagged human CD40 (h-CD40-his) recombinant protein (human, UniProt P25942 21-193); assay: SPR (Biacore), antibody captured on anti-human Fc chip, His-tagged CD40 as analyte, 1:1 model
T2 construct: Bought from Acrobiosystems, Cat. #CD0-H5228; also called His-tagged human CD40 antigen; not shown: His tag
T2 sequence (P25942 21-193 limits assumed): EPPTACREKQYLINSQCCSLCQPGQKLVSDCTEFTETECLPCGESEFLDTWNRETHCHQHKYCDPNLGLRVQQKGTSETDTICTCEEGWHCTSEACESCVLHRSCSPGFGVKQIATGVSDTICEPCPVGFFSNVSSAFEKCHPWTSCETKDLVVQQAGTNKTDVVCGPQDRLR
Experimental: (§1) The test antibody was affinity-captured on an anti-human Fc chip, and a series of concentrations of His-tagged human or cynomolgus monkey CD40 antigen were allowed to flow over the chip surface. Reaction signals were detected in real time using a Biacore instrument, and thus binding and dissociation curves were obtained. The buffer used in the experiment was HBS-EP+10× buffer solution (Cat. #BR-1006-69, GE) diluted to 1× (pH 7.4) with D. I. Water. Fitting was performed on the data obtained from the experiment using a (1:1) Binding model to obtain affinity values. 9E6-L4H2 and 2F12-L4H2 have similar binding constants for human CD40 to CFZ533, 9E6-L4H2 has a stronger binding affinity for cynomolgus monkey CD40, and 2F12-L4H2 has a slightly weak binding affinity for cynomolgus monkey CD40.

[11] = target: T3, his-tagged cynomolgus monkey CD40 (cyno-CD40-his) recombinant protein (cynomolgus monkey); assay: as above
T3 construct: Bought from Acrobiosystems, Cat. #CD0-C52H6
Experimental: as §1

human FcRn antigen = human FcRn antigen (human, UniProt P55899 24-297; P61769 21-119); assay: SPR (Biacore), antibody captured on anti-human Fab chip, human FcRn as analyte, steady state model
Experimental: The test antibody was affinity-captured on an anti-human Fab chip, and a series of concentrations of human FcRn antigen (purchased from AcroBiosystem) were allowed to flow over the chip surface. Reaction signals where the reactions were in a steady state were detected in real time using a Biacore instrument. The buffer used in the experiment was HBS-EP+10× buffer solution (Cat. #BR-1006-69, GE) diluted to 1× (pH 7.4) with D. I. Water. Fitting was performed on the data obtained from the experiment using a steady state binding model to obtain affinity values. The anti-CD40 antibodies carrying the AAYTE mutation have a higher binding affinity for human FcRn than their parent antibodies.

[12] = target: T1, human CD40 on the cell surface; assay: cell-based or functional assay; remark: listed apart in the source
[13] = target: T1, human CD40 on the cell surface; assay: cell-based or functional assay; remark: listed apart in the source

T1 sequence (P25942 21-277): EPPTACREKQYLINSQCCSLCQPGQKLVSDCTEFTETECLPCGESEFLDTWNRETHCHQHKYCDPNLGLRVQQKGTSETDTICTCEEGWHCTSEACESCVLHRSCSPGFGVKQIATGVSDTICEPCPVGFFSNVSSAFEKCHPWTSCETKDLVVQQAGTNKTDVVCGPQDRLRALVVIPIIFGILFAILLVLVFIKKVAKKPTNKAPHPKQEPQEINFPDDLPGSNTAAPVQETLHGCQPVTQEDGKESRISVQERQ

B1: 2F12 human-rabbit chimeric anti-CD40 antibody (antibody, human IgG1, V domains shown)
VH: QSVKESEGGLFKPKDTLTLTCTVSGFSLSSYGVSWVRQAPGNGLEWIGGIGSDGSAYYASWAKSRATITRDTNLKTVTLEMTSLTAADTATYFCARGGITVYAMWGPGTLVTVSS
VL: AFELTQTPASVEAAMGGTVTIKCQASQSISNGLAWYQQKPGQPPKLLIVGASNLASGVSSRFKGSGSGTEFTLSISDLECADGATYYCQSYFSSSSTVFGGGTEVVVK
notes: Rabbit variable regions joined to human IgG1 constant region with N297A (Eu) and human kappa constant region
reporter gene cell activity IC50 (HEK-Blue CD40L cells, SEAP) [1]: 0.172 nM
EC50 [2]: 0.412 nM
EC50 [3]: 0.479 nM

B2: 9E6 human-rabbit chimeric anti-CD40 antibody (antibody, human IgG1, V domains shown)
VH: QSVRESEGGLVKPTDTLTLTCTVSGFSLSSYDMSWVRQAPGNGLEWIGAIGGAGGTYYASWAKSRSTITRNTNLNTVTLKMSSLTAADTATYFCARGWTRLDLWGQGTLVTVSS
VL: DIVLTQTPSPVSGAVGGTVTIKCQASEDISSNLAWYQQKPGQPPKLLIFPASNLASGVSSRFKGSGSGTEFTLTISDLECADAATYYCQGGYWTSTSNFGNGFGGGTEVVVK
reporter gene cell activity IC50 (HEK-Blue CD40L cells, SEAP) [1]: 0.221 nM
EC50 [2]: 0.608 nM
EC50 [3]: 0.895 nM

B3: humanized anti-CD40 antibody 9E6-L4H2 (antibody, human IgG1, kappa, N297A)
heavy: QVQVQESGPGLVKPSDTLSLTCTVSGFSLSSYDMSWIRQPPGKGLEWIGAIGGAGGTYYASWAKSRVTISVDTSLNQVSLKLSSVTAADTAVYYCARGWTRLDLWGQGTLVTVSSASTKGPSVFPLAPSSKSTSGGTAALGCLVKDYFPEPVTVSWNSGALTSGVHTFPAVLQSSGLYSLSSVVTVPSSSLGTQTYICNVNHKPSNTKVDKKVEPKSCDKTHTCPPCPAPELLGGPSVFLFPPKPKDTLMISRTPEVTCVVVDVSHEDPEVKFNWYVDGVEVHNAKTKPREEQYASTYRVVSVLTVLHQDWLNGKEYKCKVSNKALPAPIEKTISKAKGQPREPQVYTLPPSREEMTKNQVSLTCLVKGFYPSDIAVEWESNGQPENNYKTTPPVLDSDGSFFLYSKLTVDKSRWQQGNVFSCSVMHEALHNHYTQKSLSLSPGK
light: DIQLTQSPSFLSASVGDRVTITCQASEDISSNLAWYQQKPGKPPKLLIFPASNLASGVPSRFSGSGSGTEFTLTISSLQPEDFATYYCQGGYWTSTSNFGQGFGGGTKVEIKRTVAAPSVFIFPPSDEQLKSGTASVVCLLNNFYPREAKVQWKVDNALQSGNSQESVTEQDSKDSTYSLSSTLTLSKADYEKHKVYACEVTHQGLSSPVTKSFNRGEC
notes: human IgG1 N297A (Eu) heavy chain, human kappa light chain; 9E6-L4 light chain and 9E6-H2 heavy chain
IC50 for the inhibition of CD40 reporter gene cell activity (Assay 2) [4]: 0.5 nM
B cell activation assay, CD19+CD69+ % IC50 [5]: 0.14 nM
B cell activation assay, CD19+CD69+ MFI IC50 [5]: 0.07 nM
IC50 in DC cell activation assay system, CD80 MFI [6]: 3.44 nM
IC50 in DC cell activation assay system, CD86 MFI [6]: 3.72 nM
IC50 in DC cell activation assay system, IL-12/23 p40 [6]: 1.85 nM
IC50 in DC cell activation assay system, TNFα [6]: 0.7 nM
IC50 (read off the curve), CD40L-induced B cell activation (CD19+CD69+ MFI) [7]: ~0.2 nM
IC50 (read off the curve), CD40L-induced IL-12/23 p40 secretion by DC cells [8]: 1 to 2 nM
IC50 (read off the curve), CD40L-induced TNFα secretion by DC cells [9]: ~0.7 nM
EC50 [3]: 0.87 nM
Kd [10]: 0.536 nM
koff [10]: 0.000221 s⁻¹
kon [10]: 413000 M⁻¹ s⁻¹
Kd [11]: 0.121 nM
koff [11]: 6.23e-05 s⁻¹
kon [11]: 514000 M⁻¹ s⁻¹
Kd (human FcRn antigen): 293 nM

B5: humanized anti-CD40 antibody 2F12-L4H2 (antibody, human IgG1, kappa, N297A)
heavy: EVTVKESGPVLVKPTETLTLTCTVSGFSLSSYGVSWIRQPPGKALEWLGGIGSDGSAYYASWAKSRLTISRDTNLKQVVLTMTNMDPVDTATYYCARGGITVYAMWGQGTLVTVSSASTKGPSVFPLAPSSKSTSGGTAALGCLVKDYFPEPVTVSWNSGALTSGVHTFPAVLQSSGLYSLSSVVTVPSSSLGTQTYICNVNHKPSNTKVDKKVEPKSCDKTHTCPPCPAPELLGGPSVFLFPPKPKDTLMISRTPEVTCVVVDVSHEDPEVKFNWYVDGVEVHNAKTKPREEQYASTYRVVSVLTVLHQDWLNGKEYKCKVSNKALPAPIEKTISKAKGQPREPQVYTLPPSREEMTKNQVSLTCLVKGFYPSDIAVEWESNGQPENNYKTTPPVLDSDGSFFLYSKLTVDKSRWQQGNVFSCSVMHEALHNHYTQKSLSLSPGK
light: AFQLTQSPSSLSASVGDRVTITCQASQSISTGLAWYQQKPGKPPKLLIVGASNLASGVPSRFSGSGSGTDFTLTISSLQPEDFATYYCQSYFSSSSTVFGGGTKVEIKRTVAAPSVFIFPPSDEQLKSGTASVVCLLNNFYPREAKVQWKVDNALQSGNSQESVTEQDSKDSTYSLSSTLTLSKADYEKHKVYACEVTHQGLSSPVTKSFNRGEC
notes: human IgG1 N297A (Eu) heavy chain, human kappa light chain; 2F12-L4 light chain and 2F12-H2 heavy chain
IC50 for the inhibition of CD40 reporter gene cell activity (Assay 1) [4]: 0.18 nM
B cell activation assay, CD19+CD69+ % IC50 [5]: 0.04 nM
B cell activation assay, CD19+CD69+ MFI IC50 [5]: 0.03 nM
IC50 in DC cell activation assay system, CD80 MFI [6]: 0.78 nM
IC50 in DC cell activation assay system, CD86 MFI [6]: 0.52 nM
IC50 in DC cell activation assay system, IL-12/23 p40 [6]: 0.68 nM
IC50 in DC cell activation assay system, TNFα [6]: 0.3 nM
IC50 (read off the curve), CD40L-induced IL-12/23 p40 secretion by DC cells [12]: ~0.7 nM
IC50 (read off the curve), CD40L-induced TNFα secretion by DC cells [13]: ~0.4 nM
EC50 [3]: 0.589 nM
Kd [10]: 2.71 nM
koff [10]: 0.00206 s⁻¹
kon [10]: 758000 M⁻¹ s⁻¹
Kd [11]: 35.3 nM
koff [11]: 0.414 s⁻¹
kon [11]: 1.17e+07 M⁻¹ s⁻¹
Kd (human FcRn antigen): 279 nM

Further lines, results first:

IC50 (read off the curve), CD40L-induced B cell activation (CD19+CD69+ MFI) [7]: ~0.2 nM
IC50 (read off the curve), CD40L-induced IL-12/23 p40 secretion by DC cells [8]: ~1 nM
IC50 (read off the curve), CD40L-induced TNFα secretion by DC cells [9]: ~0.5 nM
Kd (human FcRn antigen): 39.8 nM
B4: humanized anti-CD40 antibody 9E6-L4H2-AAYTE (antibody, human IgG1, kappa, L234A L235A)
heavy: QVQVQESGPGLVKPSDTLSLTCTVSGFSLSSYDMSWIRQPPGKGLEWIGAIGGAGGTYYASWAKSRVTISVDTSLNQVSLKLSSVTAADTAVYYCARGWTRLDLWGQGTLVTVSSASTKGPSVFPLAPSSKSTSGGTAALGCLVKDYFPEPVTVSWNSGALTSGVHTFPAVLQSSGLYSLSSVVTVPSSSLGTQTYICNVNHKPSNTKVDKKVEPKSCDKTHTCPPCPAPEAAGGPSVFLFPPKPKDTLYITREPEVTCVVVDVSHEDPEVKFNWYVDGVEVHNAKTKPREEQYNSTYRVVSVLTVLHQDWLNGKEYKCKVSNKALPAPIEKTISKAKGQPREPQVYTLPPSREEMTKNQVSLTCLVKGFYPSDIAVEWESNGQPENNYKTTPPVLDSDGSFFLYSKLTVDKSRWQQGNVFSCSVMHEALHNHYTQKSLSLSPGK
light: B3 light
notes: light chain unchanged from 9E6-L4H2

IC50 (read off the curve), CD40L-induced IL-12/23 p40 secretion by DC cells [12]: ~0.6 nM
IC50 (read off the curve), CD40L-induced TNFα secretion by DC cells [13]: ~0.3 nM
Kd (human FcRn antigen): 44.2 nM
B6: humanized anti-CD40 antibody 2F12-L4H2-AAYTE (antibody, human IgG1, kappa, L234A L235A)
heavy: EVTVKESGPVLVKPTETLTLTCTVSGFSLSSYGVSWIRQPPGKALEWLGGIGSDGSAYYASWAKSRLTISRDTNLKQVVLTMTNMDPVDTATYYCARGGITVYAMWGQGTLVTVSSASTKGPSVFPLAPSSKSTSGGTAALGCLVKDYFPEPVTVSWNSGALTSGVHTFPAVLQSSGLYSLSSVVTVPSSSLGTQTYICNVNHKPSNTKVDKKVEPKSCDKTHTCPPCPAPEAAGGPSVFLFPPKPKDTLYITREPEVTCVVVDVSHEDPEVKFNWYVDGVEVHNAKTKPREEQYNSTYRVVSVLTVLHQDWLNGKEYKCKVSNKALPAPIEKTISKAKGQPREPQVYTLPPSREEMTKNQVSLTCLVKGFYPSDIAVEWESNGQPENNYKTTPPVLDSDGSFFLYSKLTVDKSRWQQGNVFSCSVMHEALHNHYTQKSLSLSPGK
light: B5 light
notes: light chain unchanged from 2F12-L4H2
